Molecular target: recombinant MnSOD-WT (manganese superoxide dismutase, wild type) (UniProt P04179)
Experiment: SEC; Superdex 200 Increase 10/300 GL, 50 mM potassium phosphate pH 7.8; size from a calibration curve of gel filtration standards

stoichiometry N: 4
Substance: recombinant MnSOD-WT (manganese superoxide dismutase, wild type) (from UniProt P04179 25-222) (enzyme)
